From patent US20210317201A1 (Boehringer Ingelheim, published 2021)
“And” between values parts separate entries of the source, which are not always exact repeats. Equal values may be shown once.

T1: recombinant human IL-23 (human, UniProt P29460 23-328)
T1 sequence 1: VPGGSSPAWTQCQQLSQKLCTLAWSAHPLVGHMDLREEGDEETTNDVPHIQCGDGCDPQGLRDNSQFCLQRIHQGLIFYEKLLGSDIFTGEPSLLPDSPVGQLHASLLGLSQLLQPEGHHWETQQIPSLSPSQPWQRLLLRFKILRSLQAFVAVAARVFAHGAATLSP
T1 sequence 2: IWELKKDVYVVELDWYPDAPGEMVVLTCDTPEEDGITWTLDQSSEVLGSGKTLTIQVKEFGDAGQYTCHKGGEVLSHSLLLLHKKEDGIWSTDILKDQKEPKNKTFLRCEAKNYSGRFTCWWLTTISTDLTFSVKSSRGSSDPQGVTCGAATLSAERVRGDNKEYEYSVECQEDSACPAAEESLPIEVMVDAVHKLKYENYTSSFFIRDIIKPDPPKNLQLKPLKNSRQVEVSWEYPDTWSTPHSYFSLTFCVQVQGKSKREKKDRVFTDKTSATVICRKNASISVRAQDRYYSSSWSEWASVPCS

T2: natural human IL-23 from activated THP-1 cells (human, UniProt P29460 23-328)
T2 sequence 1: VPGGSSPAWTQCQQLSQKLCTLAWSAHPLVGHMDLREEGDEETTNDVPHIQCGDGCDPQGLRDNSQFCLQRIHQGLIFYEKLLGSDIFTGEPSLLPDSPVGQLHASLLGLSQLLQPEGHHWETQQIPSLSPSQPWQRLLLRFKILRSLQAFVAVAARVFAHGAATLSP
T2 sequence 2: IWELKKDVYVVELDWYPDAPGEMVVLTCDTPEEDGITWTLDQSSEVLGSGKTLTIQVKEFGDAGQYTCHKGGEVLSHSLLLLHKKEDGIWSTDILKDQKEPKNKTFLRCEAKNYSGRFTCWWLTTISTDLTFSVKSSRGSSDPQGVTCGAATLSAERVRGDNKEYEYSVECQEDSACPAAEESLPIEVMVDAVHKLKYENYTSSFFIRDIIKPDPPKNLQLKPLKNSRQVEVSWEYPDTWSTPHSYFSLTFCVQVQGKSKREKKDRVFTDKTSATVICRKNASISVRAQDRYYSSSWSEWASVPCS

T3: human IL-12 (human, UniProt P29459 23-219; P29460 23-328)
T3 sequence (looked up) 1: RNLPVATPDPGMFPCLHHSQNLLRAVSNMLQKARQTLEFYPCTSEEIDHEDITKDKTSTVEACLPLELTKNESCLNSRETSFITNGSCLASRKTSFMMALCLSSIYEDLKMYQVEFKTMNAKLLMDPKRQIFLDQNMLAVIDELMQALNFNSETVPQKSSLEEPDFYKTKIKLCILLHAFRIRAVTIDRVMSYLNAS
T3 sequence (looked up) 2: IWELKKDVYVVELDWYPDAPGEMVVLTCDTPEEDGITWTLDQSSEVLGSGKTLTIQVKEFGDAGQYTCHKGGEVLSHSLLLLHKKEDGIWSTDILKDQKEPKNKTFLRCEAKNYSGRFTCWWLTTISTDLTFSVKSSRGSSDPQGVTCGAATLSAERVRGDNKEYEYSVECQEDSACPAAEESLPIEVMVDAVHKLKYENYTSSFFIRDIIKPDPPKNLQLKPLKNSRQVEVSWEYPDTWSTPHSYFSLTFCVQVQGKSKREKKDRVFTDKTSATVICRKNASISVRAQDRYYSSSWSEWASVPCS

T4: Human IL-23 no linker (human, UniProt P29460 23-328)
T4 construct: also called recombinant IL-23 without linker
T4 sequence 1: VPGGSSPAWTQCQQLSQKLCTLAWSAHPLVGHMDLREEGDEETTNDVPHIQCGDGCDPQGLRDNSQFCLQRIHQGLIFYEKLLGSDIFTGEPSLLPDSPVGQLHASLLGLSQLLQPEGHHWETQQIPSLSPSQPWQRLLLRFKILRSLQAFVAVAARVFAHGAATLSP
T4 sequence 2: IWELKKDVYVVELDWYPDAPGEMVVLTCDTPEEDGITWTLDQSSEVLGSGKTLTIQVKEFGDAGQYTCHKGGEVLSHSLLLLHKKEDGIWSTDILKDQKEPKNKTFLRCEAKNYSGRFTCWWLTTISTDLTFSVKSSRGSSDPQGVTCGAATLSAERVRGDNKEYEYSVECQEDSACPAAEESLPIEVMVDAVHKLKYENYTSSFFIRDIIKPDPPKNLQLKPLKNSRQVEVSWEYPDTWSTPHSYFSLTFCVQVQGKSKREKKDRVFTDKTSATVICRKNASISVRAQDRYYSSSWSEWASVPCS


How the values were obtained:
recombinant human IL-23 [1] = molecular target: T1, recombinant human IL-23; assay: cell-based or functional assay
[2] = molecular target: T2, natural human IL-23 from activated …; assay: cell-based or functional assay
human IL-12 = molecular target: T3, human IL-12; assay: cell-based or functional assay
Human IL-23 no linker = molecular target: T4, Human IL-23 no linker; assay: SPR, ProteOn XPR36, global 1:1 fit
Experimental: B) Affinities were measured for humanized antibodies derived from mouse antibody 6B8.

recombinant human IL-23 [3] = molecular target: T1, recombinant human IL-23; assay: BLI, Fortebio Octet; hybridoma-derived antibody
Experimental: Kinetics and binding affinities were measured using the Fortebio OCTET® (Fortebio, Menlo Park, Calif.) using material generated from hybridoma following single column purification.

cynomologous IL-23 = molecular target: T5, cynomologous IL-23 (cynomolgus monkey); assay: SPR, ProteOn XPR36, global 1:1 fit
T5 construct: also called cynomolgus IL-23; cynomolgus monkey IL-23

recombinant human IL-23 [4] = molecular target: T1, recombinant human IL-23; assay: cell-based or functional assay; remark: listed apart in the source

| Binder | IC50, IL-23 stimulated IL-17 production from mouse splenocytes (recombinant human IL-23 [1]) | IC50, IL-23 stimulated IL-17 production from mouse splenocytes [2] | Average pg/ml IFN-γ +/- Standard Deviation, human PHA-derived T cell blasts with 1 ng/ml IL-12 (no antibody: 532 +/- 51; unstimulated: 87 +/- 7) (human IL-12) [pg/ml IFN-γ] | Kd (Human IL-23 no linker) [nM] | koff (Human IL-23 no linker) [s⁻¹] | kon (Human IL-23 no linker) [M⁻¹ s⁻¹] | Kd (recombinant human IL-23 [3]) [nM] | koff (recombinant human IL-23 [3]) [s⁻¹] | Kd (cynomologous IL-23) [nM] | koff (cynomologous IL-23) [s⁻¹] | kon (cynomologous IL-23) [M⁻¹ s⁻¹] | IC50, IL-23 induced STAT3 phosphorylation in human DB cells (phospho-STAT3 ELISA) (recombinant human IL-23 [4]) |
| --- | --- | --- | --- | --- | --- | --- | --- | --- | --- | --- | --- | --- |
| Mouse antibody 6B8 (antibody, V domains shown, Mouse monoclonal antibody from hybridoma; also called Mouse 6B8; 6B8Vk) VH: QVQLQQSDAELVKPGTSVKTSCKISGNTFTDQTIHWMKQRPEQGLEWIGYIYPRDDSPKYNENFKGKATLTADKSSSTAYMQLNSLTSEDSAVYFCAIPDRSGYAWFIYWGQGTLVTVSS VL: DIVMTQSHKFLSTSVGDRVTITCKASRDVAIAVAWYQQKPGQSPKLLLFWASTRHTGVPDRFTGSGSRTDFTLTISNVQSEDLADYFCHQYSSYPFTFGSGTKLEIK | 0.013 nM | – | – | 0.0245 | 1.38e-05 | 557000 | < 0.001 | < 1e-06 | – | – | – | – |
| antibody C1273 (disclosed in WO 2007/005955) (antibody, V domains shown) VH: DVNLVESGGGLVKPGGSLKLSCAASGFTFSSYTMSWVRQTPEKRLEWVATISSGGTYTYYPDSVKGRFTISRDNAKNTLYLQMSSLKSEDTAMFYCTRDNHAYDRGPFFDYWGQGATLTVSS VL: DIVMSQSPSSLVVSVGEKVTMSCKSSQNLFYRSNQKNHLAWYQQKPGQSPTLLIYWTSTRESGVPDRFTGSGSGTDFTLTISRVKAEDLAVYYCQQYYSYPPTFGGGTKLEIK | – | – | – | 0.0158 | 5.75e-06 | 360000 | – | – | – | – | – | – |
| Antibody A (antibody, human IgG1, kappa, L234A L235A, V domains shown, Humanized 6B8, human IgG1-KO (L234A/L235A) / kappa; also called 6B8-IgG1KO-2 with IgK-66; 6B8CVH-02 / 6B8CVK-66) VH: QVQLVQSGAEVKKPGSSVKVSCKASGYTFTDQTIHWMRQAPGQGLEWIGYIYPRDDSPKYNENFKGKVTITADKSTSTAYMELSSLRSEDTAVYYCAIPDRSGYAWFIYWGQGTLVTVSS VL: DIQMTQSPSSLSASVGDRVTITCKASRDVAIAVAWYQQKPGKVPKLLIYWASTRHTGVPSRFSGSGSRTDFTLTISSLQPEDVADYFCHQYSSYPFTFGSGTKLEIKR | 0.005 nM and 0.015 nM | 0.001 nM | 497 | < 0.001 | – | – | – | – | < 0.001 | – | – | – |

Results, then the binder that gave them:

| IC50, IL-23 stimulated IL-17 production from mouse splenocytes (recombinant human IL-23 [1]) | IC50, IL-23 stimulated IL-17 production from mouse splenocytes [2] | Average pg/ml IFN-γ +/- Standard Deviation, human PHA-derived T cell blasts with 1 ng/ml IL-12 (no antibody: 532 +/- 51; unstimulated: 87 +/- 7) (human IL-12) [pg/ml IFN-γ] | Kd (Human IL-23 no linker) [nM] | koff (Human IL-23 no linker) [s⁻¹] | kon (Human IL-23 no linker) [M⁻¹ s⁻¹] | Kd (recombinant human IL-23 [3]) [nM] | koff (recombinant human IL-23 [3]) [s⁻¹] | Kd (cynomologous IL-23) [nM] | koff (cynomologous IL-23) [s⁻¹] | kon (cynomologous IL-23) [M⁻¹ s⁻¹] | IC50, IL-23 induced STAT3 phosphorylation in human DB cells (phospho-STAT3 ELISA) (recombinant human IL-23 [4]) | Binder |
| --- | --- | --- | --- | --- | --- | --- | --- | --- | --- | --- | --- | --- |
| 0.026 nM and 0.037 nM and 0.057 nM | 0.005 nM and 0.002 nM and 0.006 nM and 0.003 nM | 523 | – | – | – | – | – | – | – | – | – | Chimeric 6B8 (antibody, V domains shown) VH: QVQLQQSDAELVKPGTSVKTSCKISGNTFTDQTIHWMKQRPEQGLEWIGYIYPRDDSPKYNENFKGKATLTADKSSSTAYMQLNSLTSEDSAVYFCAIPDRSGYAWFIYWGQGTLVTVSS VL: DIVMTQSHKFLSTSVGDRVTITCKASRDVAIAVAWYQQKPGQSPKLLLFWASTRHTGVPDRFTGSGSRTDFTLTISNVQSEDLADYFCHQYSSYPFTFGSGTKLEIK |
| 0.236 nM and 0.225 nM and 0.614 nM and 0.458 nM | 0.133 nM and 0.125 nM | 539 | 0.135 | 4.93e-05 | 366000 | – | – | 0.0159 | 3.29e-05 | 2.07e+06 | 0.158 nM | Antibody D (antibody, human IgG1, kappa, L234A L235A, V domains shown, Humanized 6B8, human IgG1-KO (L234A/L235A) / kappa; also called 6B8-IgG1KO-5 with IgK-65; 6B8CVH-05 / 6B8CVK-65) VH: QVQLVQSGAEVKKPGSSVKVSCKASGFTFTDQTIHWVRQAPGQGLEWMGYIYPRDDSPKYNENFKGKVTLTADKSTSTAYMELSSLRSEDTAVYYCAIPDRSGYAWFIYWGQGTLVTVSS VL: DIQMTQSPSSLSASVGDRVTITCKASRDVAIAVAWYQQKPGKVPKLLLFWASTRHTGVPDRFSGSGSGTDFTLTISSLQPEDLADYYCHQYSSYPFTFGQGTKLEIKR |
| – | 0.009 nM and 0.008 nM | 537 | < 0.001 | < 1e-06 | 517000 | – | – | < 0.001 | < 1e-06 | 2.99e+06 | 0.073 nM and 0.084 nM | Antibody B (antibody, human IgG1, kappa, L234A L235A, V domains shown, Humanized 6B8, human IgG1-KO (L234A/L235A) / kappa; also called 6B8-IgG1KO-5 with IgK-66; 6B8CVH-05 / 6B8CVK-66) VH: QVQLVQSGAEVKKPGSSVKVSCKASGFTFTDQTIHWVRQAPGQGLEWMGYIYPRDDSPKYNENFKGKVTLTADKSTSTAYMELSSLRSEDTAVYYCAIPDRSGYAWFIYWGQGTLVTVSS VL: DIQMTQSPSSLSASVGDRVTITCKASRDVAIAVAWYQQKPGKVPKLLIYWASTRHTGVPSRFSGSGSRTDFTLTISSLQPEDVADYFCHQYSSYPFTFGSGTKLEIKR |
| – | 0.016 nM and 0.032 nM | 495 | 0.0363 | 1.65e-05 | 454000 | – | – | 0.0029 | 9.36e-06 | 3.23e+06 | 0.132 nM and 0.08 nM | Antibody C (antibody, human IgG1, kappa, L234A L235A, V domains shown, Humanized 6B8, human IgG1-KO (L234A/L235A) / kappa; also called 6B8-IgG1KO-2 with IgK-65; 6B8CVH-02 / 6B8CVK-65) VH: QVQLVQSGAEVKKPGSSVKVSCKASGYTFTDQTIHWMRQAPGQGLEWIGYIYPRDDSPKYNENFKGKVTITADKSTSTAYMELSSLRSEDTAVYYCAIPDRSGYAWFIYWGQGTLVTVSS VL: DIQMTQSPSSLSASVGDRVTITCKASRDVAIAVAWYQQKPGKVPKLLLFWASTRHTGVPDRFSGSGSGTDFTLTISSLQPEDLADYYCHQYSSYPFTFGQGTKLEIKR |
| 0.031 nM | – | 511 | – | – | – | – | – | – | – | – | – | Chimeric 18E5 (antibody, V domains shown) VH: EVQLQQSGPELVKPGAAVKMSCKASGYTFTRYLIHWVKQKPGQGLEWIGYINPYNDGTKYNEKFKGKATLTSDKSSSTAYMELSSLTSEDSAVYYCTSNWDLDYWGQGTTLTVSS VL: DIVMTQSPATLSVTPGDRVSLSCRASQSISDYLYWYQQKSHESPRLLIKFASQSISGIPSRFTGSGSGSDFTLSIDSVEPDDVGVFFCQNGHSFPFTFGGGTKLEIK |
